This is an account of results in PMC12143593.

pKd: −log10 of the molar value.

The target of series [1] is EcSSB dC (construct lacking the CTP, aa 1-170) (Escherichia coli) (UniProt P0AGE0). The experiment in a line: fluorescence polarisation; competitive: dC (2.5 uM tetramer) complexed with 25 nM flCTP, titrated with EcSSB constructs (tetramer concentrations); 25°C; 20 mM Tris–acetate pH 8, 50 mM K-glutamate, 10 mM Mg-acetate; competitive binding scheme. A general note: Polarisation of emitted light reports the rotation of a fluorescent probe.

Series [2] addresses RecQ helicase (UniProt P15043). The experiment in a line: fluorescence polarisation; competitive: RecQ–flCTP mixture (0.65 uM RecQ, 25 nM flCTP) titrated with EcSSB constructs (tetramer concentrations); 25°C; 20 mM Tris–acetate pH 8, 50 mM K-glutamate, 10 mM Mg-acetate; competitive binding scheme.
For series [3], the target named is EHE chimera (EcSSB with hSSB1 IDL) (Escherichia coli / human (IDL)) (UniProt P0AGE0). The experiment in a line: fluorescence polarization. To be noted: 20 mM Tris-acetate pH 8, 50 mM K-glutamate, 10 mM Mg-acetate, 25 C, 10 nM labeled oligo, SSB concentrations as tetramers.
Series [4] concerns the target EPE chimera (EcSSB with PfSSB IDL) (Escherichia coli / Plasmodium falciparum (IDL)) (UniProt P0AGE0). The experiment in a line: fluorescence polarization. The settings on record: 20 mM Tris-acetate pH 8, 50 mM K-glutamate, 10 mM Mg-acetate, 25 C; 10 nM labeled oligo, SSB concentrations as tetramers.
The target in series [5] is EcSSB WT (Escherichia coli) (UniProt P0AGE0). The experiment in a line: fluorescence polarization. To be noted: n = 1.9 tetramer per oligo; 20 mM Tris-acetate pH 8, 50 mM K-glutamate, 10 mM Mg-acetate, 25 C; 10 nM labeled oligo, SSB concentrations as tetramers.
For series [6], the target named is EcSSB d2G internal_change (Escherichia coli) (UniProt P0AGE0). The experiment in a line: fluorescence polarization. The settings on record: n = 2.8; 20 mM Tris-acetate pH 8, 50 mM K-glutamate, 10 mM Mg-acetate, 25 C; 10 nM labeled oligo, SSB concentrations as tetramers.
Series [7] has as its target EcSSB d1G internal_change (Escherichia coli) (UniProt P0AGE0). The experiment in a line: fluorescence polarization. To be noted: n = 1.9 to 2.3 range; here 2.3; 20 mM Tris-acetate pH 8, 50 mM K-glutamate, 10 mM Mg-acetate, 25 C; 10 nM labeled oligo, SSB concentrations as tetramers.
The target in series [8] is EcSSB W136D W136D (Escherichia coli) (UniProt P0AGE0). The experiment in a line: fluorescence polarization. To be noted: n = 2; 20 mM Tris-acetate pH 8, 50 mM K-glutamate, 10 mM Mg-acetate, 25 C; 10 nM labeled oligo, SSB concentrations as tetramers.
Series [9] concerns the target EcSSB R116D-W136D R116D;W136D (Escherichia coli) (UniProt P0AGE0). The experiment in a line: fluorescence polarization. To be noted: n = 2; 20 mM Tris-acetate pH 8, 50 mM K-glutamate, 10 mM Mg-acetate, 25 C; 10 nM labeled oligo, SSB concentrations as tetramers.

RecQ helicase, sequence (P15043 whole entry): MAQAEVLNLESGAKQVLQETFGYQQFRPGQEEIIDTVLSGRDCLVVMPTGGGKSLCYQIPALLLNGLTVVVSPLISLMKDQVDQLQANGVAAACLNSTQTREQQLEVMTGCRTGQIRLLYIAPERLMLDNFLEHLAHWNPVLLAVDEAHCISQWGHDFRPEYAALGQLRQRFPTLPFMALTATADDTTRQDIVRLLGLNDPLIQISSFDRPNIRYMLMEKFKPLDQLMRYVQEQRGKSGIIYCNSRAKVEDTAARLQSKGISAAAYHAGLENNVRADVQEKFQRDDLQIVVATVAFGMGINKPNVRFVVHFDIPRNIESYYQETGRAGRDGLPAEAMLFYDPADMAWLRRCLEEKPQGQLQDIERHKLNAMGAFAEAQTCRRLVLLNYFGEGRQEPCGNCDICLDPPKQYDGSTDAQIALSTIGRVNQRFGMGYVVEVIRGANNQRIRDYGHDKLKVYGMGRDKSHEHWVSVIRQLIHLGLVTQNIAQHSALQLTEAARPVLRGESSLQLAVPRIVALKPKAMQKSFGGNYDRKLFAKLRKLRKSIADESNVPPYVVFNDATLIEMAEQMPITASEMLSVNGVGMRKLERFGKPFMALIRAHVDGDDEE

Consider “EPE chimeric construct (EcSSB OB domain, IDL of Plasmodium falciparum SSB, EcSSB CTP) (from UniProt P0AGE0;Q8I415)”, for which the values for the pKd in series [1] and in series [2] were 7.24 and over 8.00, respectively.
In series [1], “EcSSB GG construct (entire IDL except the CTP eliminated) (from UniProt P0AGE0 1-113) (natural protein)” had a pKd of 7.01.
“TTTTTTTTTTTTTTTTTTTTTTTTTTTTTTTTTTTTTTTTTTTTTTTTTTTTTTTTTTTTTTTTTTTTTTTTTTTTTTT [dT79]”: the pKd in series [3] (n = 2.3) and in [4] was over 8.00 throughout.
Turning to ssDNA36, the pKd is 7.49 in series [5]; 7.34 in series [6]; 7.02 in series [3] (n = 2.1); 7.08 in [4]; 7.05 in series [7]; 7.80 in series [8]. Besides, the pKd in series [9] was 7.68.

Broadly, the pKd is the Kd on a negative log10 scale, so that one unit is a factor of ten.
